In the DeepSol protein solubility set:

test: soluble on expression in E. coli; label from the status in PepcDB or PDB records

Soluble on expression in E. coli, not soluble:
MGSDKIHHHHHHMCMDRAICGNFYYGGKFDYLEVIVSDGKIAGIKKDAGNVPKTNYDGAILPAATDIHVHFRTPGETEKEDFGSGSLSAIYGGTTYVMDMPNNRFPITDYNAFGDKLGSIDSTSFADFSLYSMETGKNAMLLDRRSIGLKVYLGGSTNSTGTEVIEEGDIRKINEMNYPVVFHGESERCLKTHQMEEKNLRDHNLARPIDCEIEAAKYVSGLDIKTKIMAHVSSPDVTGNFLREVTPHHLLLNDEMPLGSFGKVNPPLRDSRTQKRLLDDYISGKFDILSSDHAPHTEDDKREFEFAKSGIIGVETRVPLFLALAQKKIVPLDVLYRTAIENPPSIFGIKKGKIEIGYDADFMVIDFTSMKRINDNRLHSKFPVSPFNGMDAIFPSHVIMRGNVVIDRYEDISDPMGVFIPKPQKE
MGSDKIHHHHHHMCSEGLRERYVNPYTDFAFKLLFGTDLNKEILIGFLNALFDGKQVIEDVIYLNTEHLGSKETDRRAVFDVYCENEKGEKILIEMQRGEQQFFKDRSIYYATYPIREQAIKGEIWNYELKAVYVIGILNFALDDVSSSGFRHEVKLMDTTTHEVFFDKLTFVYLEMPKFHKTEQELDTLFDKWMFVLKNLARLMERPTSLQERVFNRLFEAAEIAQFSKENLYAYEESLKVYRDWNNVINTAIQKGIAEGEWMKAKAIAGNLKNAGLSIAEIAKVTGLSEDEINSL
MGSDKIHHHHHHMDAPYVSMWTSCSGGCSNNMYQLPANYPMKEKRDNEAEHTEGRLSKNERIERQLNSLYDFRFNIVKSRTEYRAANTSGLYQPVTKFALNSFRRKLDVTAGITTSAENIRMILESDFANKVHPIREYLTALPLLNPAGHGYIKKLLNTVQVANPGEWEEYFTKWLVGVVANAMNDTGCQNHTCLVLTGDNQGQFKTWWLDNLCPSSLKNYLFTGKIDPQSKDILTLIAEYLFINIDDQLKELNKQNENALKNLITTPAVKYRRPYDIYIEEYPHLASFMASVNGNEFLTDPTGNRRFLPFEVLHIDKPTAESINMDNVYSEIMYLYRQGVRYWFNDAEIEELHLTNAEFEVQTVEFEMLMQYFEKPTEEEESLFFMTTAQILTCLRDVCPMQLSEKRLGEALRKAGFKRVQKRISNCNYSVYGYRIKPVSIPYTDNDYG
MGSDKIHHHHHHMDEQLEQLMRQLSGLNEQVRNGAVYQSLGTRLGKLMDGIQRRRRTAVVLPDDQDGVKDVLAELRHQLEQNVPVTLTHEKLTLLTAHLSSTDMALRYQGINFTLYDALQQDALDSAQMAFLLDELSRPDALFSHILEPANTAVFGRSARVAMLAVILHFVTPDVQSHTPDLRRIVILAAMYLCLETDTRGFVNQHGWAHAFTAITDLLTVLAGTEALPRADKLFLMMTLLERVKRLNTPLIYGENDRMAMYLSELANRHQLYADTLLLSLKQWRQQVALHRRPDTIAGWNRFFNRKRLLDSLRLQSELPASLQKYLNSTIDFLG
MGSDKIHHHHHHMDFQEKIEELRKIIKDNIEPLITSDYVHLDNPYHGNIGDILIWEGERQFLSSIKYKCLQSSSNSWCENYLHPETVILFNGGGNFGDLYRECQDFRLRVIEQFPNNRIIMFPQSIWYEDESLIAKDAAVMARHNDLTLCARDKWSYNFLKEHFGKNKILLVPDMAFYISDEYLNKYRECVFWGQKLYLRRIDKEMDFSTILDDLRGFDIRDWPSLERRPICLLILRIMKRAAYYLQKITCLTVLQRFVNRLADEYAIRIVRPYLLKRGCDFISPYSEVITTRLHGLILSILFHKPVYYINNTTGKLSAYVDTWHLQDILEVSPYVDKILEKHVD
MGSDKIHHHHHHMDFYTIQFDDLANFESAGIFVNNKKWKHSHRILSSFEIIVMIEGVLPIQVSNTQYRVKPNKLLIIPPSAEHFGFEFTTSDIKFIWIHFNCSKFKINDEKSLFLSNIENSSIILPNYSNKLDVQRIILMSNHLLDITQENVNSIYLNLFLNSTLHEINYQTQKILKERQLSNLYLQPVREFIRINCFEDIDLGSIATHFNYNKSYLSRKYKKVMGIGIKQQINKFRISRAEYLLSNTSLTVQEISSQIGFNDEKYFMRLFRKNTNSTPSEYRKLYSQRHFNKE
MGSDKIHHHHHHMDHQIEDLLEHWLPLADDAWVLAVITHVQGSAYRKPGAMMLFHEFGQGAGILSGGCLEADLRRYAQNAMQTKQVMCVTYDASDESDASYRLGCGGIVDIMLIPLLKENHDLGLIDLVHAFRHGQSGYYQLPLVASGTDARQYQARFYSADAAPFPISDFAKSKIVKQESNDTLVIPLRPRFHIGIFGGGIDAKPIAAIAHSLGWQVTVIDGRTAYARAADFPHAHIIKQAVGELAANVIAQLDCAVVINHNLGLDAAVLKAIQPYSLDYVALLGPAHRRDKVLAMAGLSAQSFSGVFSAPAGLALGGELPSAIALSILAQCHGVLHGATLKQLDEIMG
MGSDKIHHHHHHMDHQMEDLLEHWLPLADDAWVLAVITHIQGSSYRKPGAMMLFHEFGQGAGILSGGCLEADLRRHAQNAMLSHQIGCVSYDATDESDASYRLGCGGKVDIMLIPLLKENHDLGLVDIVQAFRKGQSGFYQLPLVPAGSDARSYSAQFYSSENVPFATADFAKAGVLSQPSGDTLIIPIRPRFHLGIFGGGIDAKPVAAIAHSLGWQVSVFDSRTAYARTADFPHAHIVKQSPDDAAALIANLDCAVVMHHNLTLDAAALKVIQPFALKYVALLGPAHRRDKVLSIAALNVDSFSGFFSAPAGLALGGELPSAIALSILAQCHGVLHGAAFSTLDGMMP
MGSDKIHHHHHHMDHRQTFLSRYDTAACKAAHEIISCYSTSFGLATKLLRGRIRTDISNLYAMVRIADEIVDGTAQMAGLEPNAVSQLLDDYEAAVLAAPTQRFHADPILHAWALSARRCKFKTEHVQAFFTSMRNDLHKHNYEAAEFNEYVYGSAEVIGLMCLDAFLVEQHPRPHERTMMEHGARSLGSAFQKINFLRDLEEDTHVLGRNYFPQLTGELTDATKALLVADIRTDLAAAYRCIPLLPFDARVGVQAAADLFTALTDRIQEASAVEVTHTRIRIPKAQKIAIITRAPWRALHG
MGSDKIHHHHHHMDIPHQRLVYFQVTIEAGSVRQAAARLDIAPSAVSRQLSLIEEALGAPLLERSRQGVVPTPVGEMLLDYCRKRAALDDRFSETLDAYQRLETGHLSLTVGEGFVGDLLDTPLRTFTERYRGVRLDVNTGSTSDIIEAVVEDEAHIGLMYHERLHPQLRFWHSSRQPLVALMSPSHPLAAVENELPLATLSEHPMALWRTGHGVRQLVDEGFREAGLGQHVTMQTNSLSVLLHAARSELTLTLLPAFAAARELEDGALVARAVDCERFRQAHAHIITRVGRRMPKAGLQLLRHLERWMRAFKSRLVSG
MGSDKIHHHHHHMDKYLSANSLEGVIDNEFSMPAPRWLNTYPAGPYRFINREFFIIAYETDPDLLQAILPPDMELLEPVVKFEFIRMPDSTGFGDYTESGQVVPVRYKGEEGGFTISMFLDCHAPIAGGREIWGFPKKLAKPKLFVEEDTLIGILKYGSIDIAIATMGYKHRPLDAEKVLESVKKPVFLLKNIPNVDGTPLVNQLTKTYLTDITVKGAWTGPGSLELHPHALAPISNLYIKKIVSVSHFITDLTLPYGKVVADYLA
MGSDKIHHHHHHMDLMSFKEREISKKDCVELFEDTENFFDILKLADSIRKDIVGDTVTFVKNTNIETTNVCTMGCKFCAFSVSKNSPEAFKLDADEIAKKAVIAKKSGLTEVTIHGGIHPDVDTHFQVETINKVNSATSKLGGIYTHAYSPQEILNGAENAGLSIKEALKMLNEAGLRTIPGTAAEILDDEVRSDICPLKMSTKKWIDIMKTAHKTGIKTTSTIIYGHVEEYKHIVDHLSILKELQEETGGITEFIPMSFLHENTPLYKSGRVTDGASGLYELKLYAIARILFKESIKNIQAPRVKIGTKLSQLILKSGANDLGGTLVEDKVSKAAGSIYEDASVDLMKNAITSIGRIPKERTTLYEIIE
MGSDKIHHHHHHMDLRDLTYFETIAELGHLGRAAEKLNRSQPALTKSIQRLEESFGTRLFQRDGRRIKLTPVGELLQARGKELQQSIAQTQREVRDFASGMVGNIRVGCAATMAEYLMPKLTSALLQRTPDVTFKLVIGQDDLLRESLRSGQLDMIICALAPDSDDVTSFAVLKDEAVVIASKHHPIFKTPLQMSDLCAYRWVLPPVSVSSRKWLDTTFAAHGLPLPTVQIEANSISLLPGLIAQSNLLSFVARESLEFGKTMQHLREVPLEQTTLKRTIGVTLRKGGYLSPAAEGMLQMLRDNGGDFLGWG
MGSDKIHHHHHHMDNKEKEDEELSDELKDQPGPSEKPRTPTVVAFTKPSFYRVNTVISDVKVCRSMSYDMCGNHQQELLFDLYKDETTGKVYLPRFFKALLESGIRKDDPRIDKMIQNIKDADLLDDFVWGTQHIYLEKDTFKRYIGSSIGVVTKALKKQMIIPDWERFVSDMGEIFEDVRSHNEGDLATYIPQLSRVAPDSWAMSVCTIDGQRKMWGDALKPFCLQSVSKPFTYALVHDDIGPEELHAHVGQEPSGRLFNDISLDHNKKPHNPLINAGAIVVASLLKNKLPLADRFDFMIHACRKFVGSGYIGFDNSVFLSERETADRNYALSYYMREHKVFPKDLNLQDTLDLYFQICSIETNCDSLAVMAATLANGGVNPMNGERIVNNRACRDTLSLMYSCGMYDWSGQFAFHVGLPAKSGVSGDMIIVIPNVMGIALYSPRLDKLGNTVRGVKFAEQLVQKYNFHNYDSLIYSDNKKIDPRRQLKDDHDGQNRFMYATKLGDIAAIKRFLLMGHDIHCKDYDDRTVLHVAAAEGDVVTLEYVLSKWQEDPNPCDRYDRTPLDDAKHFNHTACVKLLEEAITVYNLKGQDD
MGSDKIHHHHHHMDNYEGSDPWNTSSNAWTKDDDHVVSTTNSEPSLNGISGEFNTLNFSTPLDTNEEDTGFLPTNDVLEESIWDDSRNPLGATGMSQTPNIAANETVIDKNDARDQNIEESEADLLDWTNNVRKTYRPLDADIIIIEEIPEREGLLFKHANYLVKHLIALPSTSPSEERTVVRRYSDFLWLREILLKRYPFRMIPELPPKRIGSQNADQLFLKKRRIGLSRFINLVMKHPKLSNDDLVLTFLTVRTDLTSWRKQATYDTSNEFADKKISQEFMKMWKKEFAEQWNQAASCIDTSMELWYRITLLLERHEKRIMQMVHERNFFETLVDNFSEVTPKLYPVQQNDTILDINNNLSIIKKHLETTSSICKQETEEISGTLSPKFKIFTDILLSLRSLFERYKIMAANNVVELQRHVELNKEKLESMKGKPDVSGAEYDRIKKIIQKDRRSIIEQSNRAWLIRQCILEEFTIFQETQFLITRAFQDWAKLNSNHAGLKLNEWEKLVTSIMDMPISRE
MGSDKIHHHHHHMDQEQLDALANAALEELARRNYGDFFYLSHGKQWDLLRHQKYITDRLQKIIDGEQKYYIIEIPPQHGKSTVITETFPAYYLMRHPDSLVMVVSYSKELFQKFGRKNREKFRLFSDQLFGLQISSETSSVSEWGVEGHLGSLYSTSILGGATGRGARLLIIDDPIKNRAEAESKTIRDKIYNEWQDTFYSRLTADASVIVIMTRWHEDDLAGRLLKEQTLPWEEIKIPAIAEDDDLLGRKPGEALAPEIGKDEEWAAKTKAVTGSRGWAALYQQRPTPAGGNIFKRSWIKFYVPTLSKKIELSLGDDVVILPRLFDRQAQSWDCTFKDTETSDYVSGQVWGKKRADFYLLDRHHERMGIVETMKAIDAMAAKWPKARGIYIEDKANGTAVIEMLKNELSGIIAVNPEGGKEVRANAVAPIWEAGNVYLPHPLVCPWVDDFINELVAFPNAEHDDDVDSMTQILNKMIGKVSLRERYLDN
